Biological target: IMCC25003 KatG (bifunctional catalase-peroxidase of strain IMCC25003) ('Ca. Planktophila rubra' IMCC25003 (acI-A1 tribe, freshwater Actinobacteria))
Assay: SEC

IMCC25003 KatG (bifunctional catalase-peroxidase of strain IMCC25003) (enzyme)
stoichiometry N: 2
